Experimental data taken from paper PMC8439657, “Bipartite binding and partial inhibition links DEPTOR and mTOR in a mutually antagonistic embrace” (eLife, 2021).

Target: T1, mTOR FRB domain, residues 2015-2114 (human, UniProt P42345 2015-2114)
T1 construct: mTOR, human, FRB domain, residues 2015-2114; The methods describe the purification of the GST-FRB fusion and mention no TEV cleavage; also called isolated FRB domain; source: E. coli C41(DE3)RIPL, purified (Glutathione-Sepharose, HiTrapQ, Superdex 75)
T1 sequence (P42345 2015-2114): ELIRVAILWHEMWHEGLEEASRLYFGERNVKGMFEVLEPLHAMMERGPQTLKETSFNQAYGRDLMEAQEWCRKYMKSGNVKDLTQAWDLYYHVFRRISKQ
Test: NMR titration; up to 220 µM unlabelled linker-PDZ added to 40 µM 15N-labelled FRB; 1H-15N BEST-TROSY, chemical shift perturbation; 278K, pH 8, 50 mM HEPES, 200 mM NaCl
Details: both partners purified

- Kd: ~500 µM
B1: DEPTOR long-linker-PDZ, residues 228-409 (domain or fragment)
chain: MELLNEKSPSSQETHDSPFCLRKQSHDNRKSTSFMSVSPSKEIKIVSAVRRSSMSSCGSSGYFSSSPTLSSSPPVLCNPKSVLKRPVTSEELLTPGAPYARKTFTIVGDAVGWGFVVRGSKPCHIQAVDPSGPAAAAGMKVCQFVVSVNGLNVLHVDYRTVSNLILTGPRTIVMEVMEELEC
modifications: GST tag left out (TEV-cleavable). pOPL111 states no variant, so the reference sequence is used. The full-length WT clone is the S204/N389 natural variant, so residue 389 of this construct may be N …
